The target in the data set is parkin (wild-type, GST-tagged) (UniProt O60260 1-465). As to the kind of experiment: EMSA; parkin 100 nM to 1 uM, 0.1 nM probe; shift increases with parkin; 1x binding buffer (Panomics), room temperature, 20 min; 0.1 nM biotin probe, 1 uM parkin (100 nM-1 uM titration); 6% PAGE in 0.5x TBE pH 8.3; salt not stated. The settings on record: protein: recombinant; tags: GST; label: 5' biotin; blunt.
Chain of parkin (wild-type, GST-tagged) (O60260 whole entry): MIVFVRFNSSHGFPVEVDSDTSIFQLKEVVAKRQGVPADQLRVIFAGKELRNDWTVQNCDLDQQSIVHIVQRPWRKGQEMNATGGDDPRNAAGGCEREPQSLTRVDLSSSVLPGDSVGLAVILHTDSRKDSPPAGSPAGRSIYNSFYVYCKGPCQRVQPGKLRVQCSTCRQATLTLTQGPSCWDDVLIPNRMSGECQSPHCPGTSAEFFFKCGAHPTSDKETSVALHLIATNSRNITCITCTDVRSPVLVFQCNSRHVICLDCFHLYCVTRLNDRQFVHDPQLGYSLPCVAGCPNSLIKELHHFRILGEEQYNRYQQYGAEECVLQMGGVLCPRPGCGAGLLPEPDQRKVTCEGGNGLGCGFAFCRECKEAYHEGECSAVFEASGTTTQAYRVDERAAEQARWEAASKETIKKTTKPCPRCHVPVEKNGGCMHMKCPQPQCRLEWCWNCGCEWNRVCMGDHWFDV

B1: Pp53 (human p53 promoter probe) (dsDNA)
DNA 1: GGCACCAGGTCGGCGAGAATCCTGACTCTGCACCCTCCTCCCCAACTCCATTTCCTTTGCTTCCTCCGGC
DNA 2: GCCGGAGGAAGCAAAGGAAATGGAGTTGGGGAGGAGGGTGCAGAGTCAGGATTCTCGCCGACCTGGTGCC
In the case of B1, the binding result is “binds”.

(Values after article PMC3765907, “S-Nitrosylation of parkin as a novel regulator of p53-mediated neuronal cell death in sporadic Parkinson’s disease”.)
